These results are taken from patent US20240132591A1.

Like-named read-outs stand apart in the source and are kept apart here.

Common to all, as to experiment: ELISA on insulin-coated plate, 100 nM
A general note: In an ELISA, binding on a coated surface is turned into a signal by an enzyme label.

Test [1] concerns the target Insulin (UniProt P01308).
For test [2], the target named is Insulin (UniProt P01308). The source holds these as a separate data set.
The target in test [3] is Insulin (UniProt P01308). The source holds these as a separate data set.
Test [4] has as its target Insulin (UniProt P01308). This is another data set of the same source.
The target in test [5] is Insulin (UniProt P01308). This is another data set of the same source.
Test [6] deals with Insulin (UniProt P01308). The source holds these as a separate data set.

With Elotuzumab (antibody), the Insulin polyreactivity score in the test with Insulin [1] was 1.25; with Insulin [2], 3.43; with Insulin [3], 1.09; in the test with Insulin [4], 1; with Insulin [5] it was 1.01.

Consider Lenzilumab (antibody), for which the Insulin polyreactivity score was 69.2 with Insulin [6]; 21.3 with Insulin [1]; 69.2 with Insulin [2]; 7.93 with Insulin [3]; 1.52 with Insulin [4]; 7.87 with Insulin [5].
